Data on 43 variants can be found in the Human Domainome abundance scans (Beltran et al. 2025).

B1: Kinesin-like protein KIF16B, residues 1213 to 1273; numbered along this chain, Q96L93 (parent)
chain: ETWTVFRRYSRFREMHKTLKLKYAELAALEFPPKKLFGNKDERVIAERRSHLEKYLRDFFS

± gives the uncertainty stated by the source.

The variants in this data set derive from B1. Kind of data set: abundance fitness (aPCA) (normalised: wild type 0, dead -1); higher = more abundant; growth selection in yeast, the domain comes from the species named. The following applies: Homo sapiens.
Regarding ETWTVFRCYSRFREMHKTLKLKYAELAALEFPPKKLFGNKDERVIAERRSHLEKYLRDFFS [R8C], the abundance fitness is 0.282 ± 0.056.

Consider ETWTVFRQYSRFREMHKTLKLKYAELAALEFPPKKLFGNKDERVIAERRSHLEKYLRDFFS [R8Q], for which the abundance fitness came out at 0.057 ± 0.087.

Turning to ETWTVFRHYSRFREMHKTLKLKYAELAALEFPPKKLFGNKDERVIAERRSHLEKYLRDFFS [R8H], the abundance fitness is -0.198 ± 0.33.

ETWTVFRNYSRFREMHKTLKLKYAELAALEFPPKKLFGNKDERVIAERRSHLEKYLRDFFS [R8N]: the abundance fitness is -0.31 ± 0.36.

With ETWTVFRYYSRFREMHKTLKLKYAELAALEFPPKKLFGNKDERVIAERRSHLEKYLRDFFS [R8Y], the abundance fitness came to 0.048 ± 0.07.

For ETWTVFRPYSRFREMHKTLKLKYAELAALEFPPKKLFGNKDERVIAERRSHLEKYLRDFFS [R8P], the abundance fitness is -0.092 ± 0.047.

For ETWTVFRAYSRFREMHKTLKLKYAELAALEFPPKKLFGNKDERVIAERRSHLEKYLRDFFS [R8A], the abundance fitness was 0.334 ± 0.083.

For ETWTVFRSYSRFREMHKTLKLKYAELAALEFPPKKLFGNKDERVIAERRSHLEKYLRDFFS [R8S], the abundance fitness was determined as 0.12 ± 0.04.

On to ETWTVFRLYSRFREMHKTLKLKYAELAALEFPPKKLFGNKDERVIAERRSHLEKYLRDFFS [R8L], for which the abundance fitness amounted to 0.317 ± 0.041.

For ETWTVFRGYSRFREMHKTLKLKYAELAALEFPPKKLFGNKDERVIAERRSHLEKYLRDFFS [R8G], the abundance fitness came to 0.097 ± 0.046.

On to ETWTVFRWYSRFREMHKTLKLKYAELAALEFPPKKLFGNKDERVIAERRSHLEKYLRDFFS [R8W], for which the abundance fitness came out at 0.02 ± 0.086.

For ETWTVFRDYSRFREMHKTLKLKYAELAALEFPPKKLFGNKDERVIAERRSHLEKYLRDFFS [R8D], the abundance fitness was -0.271 ± 0.13.

For ETWTVFRTYSRFREMHKTLKLKYAELAALEFPPKKLFGNKDERVIAERRSHLEKYLRDFFS [R8T], the abundance fitness was 0.005 ± 0.079.

Consider ETWTVFRIYSRFREMHKTLKLKYAELAALEFPPKKLFGNKDERVIAERRSHLEKYLRDFFS [R8I], for which the abundance fitness came to 0.37 ± 0.076.

Turning to ETWTVFRMYSRFREMHKTLKLKYAELAALEFPPKKLFGNKDERVIAERRSHLEKYLRDFFS [R8M], the abundance fitness was determined as 0.284 ± 0.066.

In the case of ETWTVFRKYSRFREMHKTLKLKYAELAALEFPPKKLFGNKDERVIAERRSHLEKYLRDFFS [R8K], the abundance fitness worked out at 0.295 ± 0.055.

With ETWTVFREYSRFREMHKTLKLKYAELAALEFPPKKLFGNKDERVIAERRSHLEKYLRDFFS [R8E], the abundance fitness is -0.494 ± 0.085.

Turning to ETWTVFRVYSRFREMHKTLKLKYAELAALEFPPKKLFGNKDERVIAERRSHLEKYLRDFFS [R8V], the abundance fitness turned out to be 0.26 ± 0.063.

In the case of ETWTVFLRYSRFREMHKTLKLKYAELAALEFPPKKLFGNKDERVIAERRSHLEKYLRDFFS [R7L], the abundance fitness was -0.025 ± 0.068.

In the case of ETWTVFNRYSRFREMHKTLKLKYAELAALEFPPKKLFGNKDERVIAERRSHLEKYLRDFFS [R7N], the abundance fitness was -0.131 ± 0.14.

In the case of ETWTVFKRYSRFREMHKTLKLKYAELAALEFPPKKLFGNKDERVIAERRSHLEKYLRDFFS [R7K], the abundance fitness turned out to be 0.227 ± 0.069.

Regarding ETWTVFHRYSRFREMHKTLKLKYAELAALEFPPKKLFGNKDERVIAERRSHLEKYLRDFFS [R7H], the abundance fitness turned out to be 0.225 ± 0.23.

With ETWTVFPRYSRFREMHKTLKLKYAELAALEFPPKKLFGNKDERVIAERRSHLEKYLRDFFS [R7P], the abundance fitness is -0.161 ± 0.14.

As for ETWTVFCRYSRFREMHKTLKLKYAELAALEFPPKKLFGNKDERVIAERRSHLEKYLRDFFS [R7C], the abundance fitness came to 0.084 ± 0.14.

In the case of ETWTVFFRYSRFREMHKTLKLKYAELAALEFPPKKLFGNKDERVIAERRSHLEKYLRDFFS [R7F], the abundance fitness was determined as 0.078 ± 0.11.

ETWTVFQRYSRFREMHKTLKLKYAELAALEFPPKKLFGNKDERVIAERRSHLEKYLRDFFS [R7Q]: the abundance fitness worked out at 0.164 ± 0.097.

ETWTVFMRYSRFREMHKTLKLKYAELAALEFPPKKLFGNKDERVIAERRSHLEKYLRDFFS [R7M]: the abundance fitness is -0.04 ± 0.092.

For ETWTVFGRYSRFREMHKTLKLKYAELAALEFPPKKLFGNKDERVIAERRSHLEKYLRDFFS [R7G], the abundance fitness is 0.186 ± 0.045.

ETWTVFTRYSRFREMHKTLKLKYAELAALEFPPKKLFGNKDERVIAERRSHLEKYLRDFFS [R7T]: the abundance fitness was -0.02 ± 0.14.

Consider ETWTVFSRYSRFREMHKTLKLKYAELAALEFPPKKLFGNKDERVIAERRSHLEKYLRDFFS [R7S], for which the abundance fitness came out at 0.141 ± 0.077.

For the variant ETWTVFVRYSRFREMHKTLKLKYAELAALEFPPKKLFGNKDERVIAERRSHLEKYLRDFFS [R7V], the abundance fitness was -0.042 ± 0.056.

Regarding ETWTVFARYSRFREMHKTLKLKYAELAALEFPPKKLFGNKDERVIAERRSHLEKYLRDFFS [R7A], the abundance fitness was determined as 0.022 ± 0.078.

In the case of ETWTVFRRRSRFREMHKTLKLKYAELAALEFPPKKLFGNKDERVIAERRSHLEKYLRDFFS [Y9R], the abundance fitness is -0.27 ± 0.054.

With ETWTVFRRASRFREMHKTLKLKYAELAALEFPPKKLFGNKDERVIAERRSHLEKYLRDFFS [Y9A], the abundance fitness was -0.119 ± 0.08.

On to ETWTVFRRQSRFREMHKTLKLKYAELAALEFPPKKLFGNKDERVIAERRSHLEKYLRDFFS [Y9Q], for which the abundance fitness was -0.446 ± 0.15.

Turning to ETWTVFRRCSRFREMHKTLKLKYAELAALEFPPKKLFGNKDERVIAERRSHLEKYLRDFFS [Y9C], the abundance fitness is 0.123 ± 0.091.

On to ETWTVFRRTSRFREMHKTLKLKYAELAALEFPPKKLFGNKDERVIAERRSHLEKYLRDFFS [Y9T], for which the abundance fitness is -0.201 ± 0.11.

On to ETWTVFRRSSRFREMHKTLKLKYAELAALEFPPKKLFGNKDERVIAERRSHLEKYLRDFFS [Y9S], for which the abundance fitness is 0.055 ± 0.06.

As for ETWTVFRRESRFREMHKTLKLKYAELAALEFPPKKLFGNKDERVIAERRSHLEKYLRDFFS [Y9E], the abundance fitness is -0.858 ± 0.19.

Consider ETWTVFRRNSRFREMHKTLKLKYAELAALEFPPKKLFGNKDERVIAERRSHLEKYLRDFFS [Y9N], for which the abundance fitness is 0.091 ± 0.34.

On to ETWTVFRRPSRFREMHKTLKLKYAELAALEFPPKKLFGNKDERVIAERRSHLEKYLRDFFS [Y9P], for which the abundance fitness came to 0.129 ± 0.11.

Turning to ETWTVFRRKSRFREMHKTLKLKYAELAALEFPPKKLFGNKDERVIAERRSHLEKYLRDFFS [Y9K], the abundance fitness was -0.056 ± 0.073.

As to ETWTVFRRISRFREMHKTLKLKYAELAALEFPPKKLFGNKDERVIAERRSHLEKYLRDFFS [Y9I], the abundance fitness worked out at 0.156 ± 0.16.
